Measured values as given in US20140087995A1 (published 2014).
Numbered stars: 1 amine (or outer) side, 2 acyl side, 3 side chain; on linkers, the order of the positions; unused ones are H or OH. Bridge positions count the residues as written; N and C are the ends. Side chains are listed from the residue outwards. Ends that are not written are not given here. * marks the point of attachment. C20 diacid = O=C(O)CCCCCCCCCCCCCCCCCCC(=O)*; C18 diacid = O=C(O)CCCCCCCCCCCCCCCCC(=O)*; C16 diacid = O=C(O)CCCCCCCCCCCCCCC(=O)*; γGlu = O=C(O)[C@H](CCC(=O)[*:2])N[*:1]; C14 diacid = O=C(O)CCCCCCCCCCCCC(=O)*; AEEA = NCCOCCOCC(=O)O

T1: human calcitonin receptor (human, UniProt P30988 25-474)
T1 sequence (looked up): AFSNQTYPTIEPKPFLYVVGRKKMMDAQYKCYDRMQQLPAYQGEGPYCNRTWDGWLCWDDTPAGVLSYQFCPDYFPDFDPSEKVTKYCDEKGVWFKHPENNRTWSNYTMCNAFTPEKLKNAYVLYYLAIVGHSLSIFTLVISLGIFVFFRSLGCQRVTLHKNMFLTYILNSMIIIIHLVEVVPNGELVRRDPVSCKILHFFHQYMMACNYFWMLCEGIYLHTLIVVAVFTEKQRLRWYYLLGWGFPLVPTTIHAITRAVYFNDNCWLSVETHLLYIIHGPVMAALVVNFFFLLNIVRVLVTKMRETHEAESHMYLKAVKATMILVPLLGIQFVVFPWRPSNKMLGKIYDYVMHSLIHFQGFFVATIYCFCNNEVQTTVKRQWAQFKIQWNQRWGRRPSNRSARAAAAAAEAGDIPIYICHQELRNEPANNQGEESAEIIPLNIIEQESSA

T2: human amylin 3(a) receptor (human calcitonin receptor + RAMP-3) (human, UniProt P30988 25-474; O60896 24-148, limits assumed)
T2 sequence (looked up) 1: T1 sequence (looked up)
T2 sequence (looked up) 2: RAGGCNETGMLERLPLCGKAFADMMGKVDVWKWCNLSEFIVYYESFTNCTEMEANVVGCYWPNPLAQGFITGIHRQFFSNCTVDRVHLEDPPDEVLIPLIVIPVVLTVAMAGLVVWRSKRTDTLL

T3: human calcitonin receptor (human, UniProt P30988 25-474)
T3 sequence (looked up): T1 sequence (looked up)

B1: N^-1-[(4S)-4-carboxy-4-(19-carboxynonadecanoylamino)butanoyl]-Gly[Arg1,Ala14,Arg17,Pro21,Pro27,His34]-h-amylin (peptide)
peptide: {C20 diacid-γGlu}-GRCNTATCATQRLAAFLRHSSPNFGAIPSSTNVGHNTY-NH2
modifications: disulfide 3-8
SMILES: CC[C@H](C)[C@H](NC(=O)[C@H](C)NC(=O)CNC(=O)[C@H](Cc1ccccc1)NC(=O)[C@H](CC(N)=O)NC(=O)[C@@H]1CCCN1C(=O)[C@H](CO)NC(=O)[C@H](CO)NC(=O)[C@H](Cc1c[nH]cn1)NC(=O)[C@H](CCCNC(=N)N)NC(=O)[C@H](CC(C)C)NC(=O)[C@H](Cc1ccccc1)NC(=O)[C@H](C)NC(=O)[C@H](C)NC(=O)[C@H](CC(C)C)NC(=O)[C@H](CCCNC(=N)N)NC(=O)[C@H](CCC(N)=O)NC(=O)[C@@H](NC(=O)[C@H](C)NC(=O)[C@@H]1CSSC[C@H](NC(=O)[C@H](CCCNC(=N)N)NC(=O)CNC(=O)CC[C@H](NC(=O)CCCCCCCCCCCCCCCCCCC(=O)O)C(=O)O)C(=O)N[C@@H](CC(N)=O)C(=O)N[C@@H]([C@@H](C)O)C(=O)N[C@@H](C)C(=O)N[C@@H]([C@@H](C)O)C(=O)N1)[C@@H](C)O)C(=O)N1CCC[C@H]1C(=O)N[C@@H](CO)C(=O)N[C@@H](CO)C(=O)N[C@H](C(=O)N[C@@H](CC(N)=O)C(=O)N[C@H](C(=O)NCC(=O)N[C@@H](Cc1c[nH]cn1)C(=O)N[C@@H](CC(N)=O)C(=O)N[C@H](C(=O)N[C@@H](Cc1ccc(O)cc1)C(N)=O)[C@@H](C)O)C(C)C)[C@@H](C)O
B2: N^-1-[(4S)-4-carboxy-4-(19-carboxynonadecanoylamino)butanoyl]-Gly[Arg1,His14,Arg17,Pro21,Pro27,Pro34]-h-amylin (peptide)
peptide: {C20 diacid-γGlu}-GRCNTATCATQRLAHFLRHSSPNFGAIPSSTNVGPNTY-NH2
modifications: disulfide 3-8
SMILES: CC[C@H](C)[C@H](NC(=O)[C@H](C)NC(=O)CNC(=O)[C@H](Cc1ccccc1)NC(=O)[C@H](CC(N)=O)NC(=O)[C@@H]1CCCN1C(=O)[C@H](CO)NC(=O)[C@H](CO)NC(=O)[C@H](Cc1c[nH]cn1)NC(=O)[C@H](CCCNC(=N)N)NC(=O)[C@H](CC(C)C)NC(=O)[C@H](Cc1ccccc1)NC(=O)[C@H](Cc1c[nH]cn1)NC(=O)[C@H](C)NC(=O)[C@H](CC(C)C)NC(=O)[C@H](CCCNC(=N)N)NC(=O)[C@H](CCC(N)=O)NC(=O)[C@@H](NC(=O)[C@H](C)NC(=O)[C@@H]1CSSC[C@H](NC(=O)[C@H](CCCNC(=N)N)NC(=O)CNC(=O)CC[C@H](NC(=O)CCCCCCCCCCCCCCCCCCC(=O)O)C(=O)O)C(=O)N[C@@H](CC(N)=O)C(=O)N[C@@H]([C@@H](C)O)C(=O)N[C@@H](C)C(=O)N[C@@H]([C@@H](C)O)C(=O)N1)[C@@H](C)O)C(=O)N1CCC[C@H]1C(=O)N[C@@H](CO)C(=O)N[C@@H](CO)C(=O)N[C@H](C(=O)N[C@@H](CC(N)=O)C(=O)N[C@H](C(=O)NCC(=O)N1CCC[C@H]1C(=O)N[C@@H](CC(N)=O)C(=O)N[C@H](C(=O)N[C@@H](Cc1ccc(O)cc1)C(N)=O)[C@@H](C)O)C(C)C)[C@@H](C)O
B3: N^α1-[(4S)-4-carboxy-4-[[(4S)-4-carboxy-4-(19-carboxynonadecanoylamino)butanoyl]amino]butanoyl]-[Glu14,Arg17,Pro21,Pro27,Pro37]-h-amylin (peptide)
peptide: {C20 diacid-γGlu-γGlu}-KCNTATCATQRLAEFLRHSSPNFGAIPSSTNVGSNTP-NH2
modifications: disulfide 2-7
SMILES: CC[C@H](C)[C@H](NC(=O)[C@H](C)NC(=O)CNC(=O)[C@H](Cc1ccccc1)NC(=O)[C@H](CC(N)=O)NC(=O)[C@@H]1CCCN1C(=O)[C@H](CO)NC(=O)[C@H](CO)NC(=O)[C@H](Cc1c[nH]cn1)NC(=O)[C@H](CCCNC(=N)N)NC(=O)[C@H](CC(C)C)NC(=O)[C@H](Cc1ccccc1)NC(=O)[C@H](CCC(=O)O)NC(=O)[C@H](C)NC(=O)[C@H](CC(C)C)NC(=O)[C@H](CCCNC(=N)N)NC(=O)[C@H](CCC(N)=O)NC(=O)[C@@H](NC(=O)[C@H](C)NC(=O)[C@@H]1CSSC[C@H](NC(=O)[C@H](CCCCN)NC(=O)CC[C@H](NC(=O)CC[C@H](NC(=O)CCCCCCCCCCCCCCCCCCC(=O)O)C(=O)O)C(=O)O)C(=O)N[C@@H](CC(N)=O)C(=O)N[C@@H]([C@@H](C)O)C(=O)N[C@@H](C)C(=O)N[C@@H]([C@@H](C)O)C(=O)N1)[C@@H](C)O)C(=O)N1CCC[C@H]1C(=O)N[C@@H](CO)C(=O)N[C@@H](CO)C(=O)N[C@H](C(=O)N[C@@H](CC(N)=O)C(=O)N[C@H](C(=O)NCC(=O)N[C@@H](CO)C(=O)N[C@@H](CC(N)=O)C(=O)N[C@H](C(=O)N1CCC[C@H]1C(N)=O)[C@@H](C)O)C(C)C)[C@@H](C)O
notes: also called compound 14
B4: N^α1-[2-[2-[2-[[2-[2-[2-[[(4S)-4-carboxy-4-(19-carboxynonadecanoylamino)butanoyl]amino]ethoxy]ethoxy]acetyl]amino]ethoxy]ethoxy]acetyl]-[Glu14,Arg17,Pro21,Pro27 … (peptide)
peptide: {C20 diacid-γGlu-AEEA-AEEA}-KCNTATCATQRLAEFLRHSSPNFGAIPSSTNVGSNTP-NH2
modifications: disulfide 2-7
SMILES: CC[C@H](C)[C@H](NC(=O)[C@H](C)NC(=O)CNC(=O)[C@H](Cc1ccccc1)NC(=O)[C@H](CC(N)=O)NC(=O)[C@@H]1CCCN1C(=O)[C@H](CO)NC(=O)[C@H](CO)NC(=O)[C@H](Cc1c[nH]cn1)NC(=O)[C@H](CCCNC(=N)N)NC(=O)[C@H](CC(C)C)NC(=O)[C@H](Cc1ccccc1)NC(=O)[C@H](CCC(=O)O)NC(=O)[C@H](C)NC(=O)[C@H](CC(C)C)NC(=O)[C@H](CCCNC(=N)N)NC(=O)[C@H](CCC(N)=O)NC(=O)[C@@H](NC(=O)[C@H](C)NC(=O)[C@@H]1CSSC[C@H](NC(=O)[C@H](CCCCN)NC(=O)COCCOCCNC(=O)COCCOCCNC(=O)CC[C@H](NC(=O)CCCCCCCCCCCCCCCCCCC(=O)O)C(=O)O)C(=O)N[C@@H](CC(N)=O)C(=O)N[C@@H]([C@@H](C)O)C(=O)N[C@@H](C)C(=O)N[C@@H]([C@@H](C)O)C(=O)N1)[C@@H](C)O)C(=O)N1CCC[C@H]1C(=O)N[C@@H](CO)C(=O)N[C@@H](CO)C(=O)N[C@H](C(=O)N[C@@H](CC(N)=O)C(=O)N[C@H](C(=O)NCC(=O)N[C@@H](CO)C(=O)N[C@@H](CC(N)=O)C(=O)N[C@H](C(=O)N1CCC[C@H]1C(N)=O)[C@@H](C)O)C(C)C)[C@@H](C)O
notes: also called compound 20
B5: N^ε1-[(4S)-4-carboxy-4-[[(4S)-4-carboxy-4-(19-carboxynonadecanoylamino)butanoyl]amino]butanoyl]-[Glu14,Arg17,Pro21,Pro27,Pro37]-h-amylin (peptide)
peptide: K([γGlu-γGlu-C20 diacid])CNTATCATQRLAEFLRHSSPNFGAIPSSTNVGSNTP-NH2
modifications: disulfide 2-7; N-terminus assumed
SMILES: CC[C@H](C)[C@H](NC(=O)[C@H](C)NC(=O)CNC(=O)[C@H](Cc1ccccc1)NC(=O)[C@H](CC(N)=O)NC(=O)[C@@H]1CCCN1C(=O)[C@H](CO)NC(=O)[C@H](CO)NC(=O)[C@H](Cc1c[nH]cn1)NC(=O)[C@H](CCCNC(=N)N)NC(=O)[C@H](CC(C)C)NC(=O)[C@H](Cc1ccccc1)NC(=O)[C@H](CCC(=O)O)NC(=O)[C@H](C)NC(=O)[C@H](CC(C)C)NC(=O)[C@H](CCCNC(=N)N)NC(=O)[C@H](CCC(N)=O)NC(=O)[C@@H](NC(=O)[C@H](C)NC(=O)[C@@H]1CSSC[C@H](NC(=O)[C@@H](N)CCCCNC(=O)CC[C@H](NC(=O)CC[C@H](NC(=O)CCCCCCCCCCCCCCCCCCC(=O)O)C(=O)O)C(=O)O)C(=O)N[C@@H](CC(N)=O)C(=O)N[C@@H]([C@@H](C)O)C(=O)N[C@@H](C)C(=O)N[C@@H]([C@@H](C)O)C(=O)N1)[C@@H](C)O)C(=O)N1CCC[C@H]1C(=O)N[C@@H](CO)C(=O)N[C@@H](CO)C(=O)N[C@H](C(=O)N[C@@H](CC(N)=O)C(=O)N[C@H](C(=O)NCC(=O)N[C@@H](CO)C(=O)N[C@@H](CC(N)=O)C(=O)N[C@H](C(=O)N1CCC[C@H]1C(N)=O)[C@@H](C)O)C(C)C)[C@@H](C)O
notes: also called compound 13

biological target: T1, human calcitonin receptor; assay: cell-based or functional assay

Row | Binder | hCTR funct. EC50 (pM)
1 | K([γGlu-γGlu-C20 diacid])CNTATCATQRLAEFLRHSSPNFGAIPSSTNVGPETY-NH2 (disulfide 2-7 (inferred), Synthetic) | 2360 pM
2 | K([γGlu-C18 diacid])CNTATCATQRLANFLRHSSPNFGAIPSSTNVGHNTY-NH2 (disulfide 2-7 (inferred), Synthetic) [N^ε1-[(4S)-4-carboxy-4-(17-carboxyheptadecanoylamino)butanoyl]-[Arg17,Pro21,Pro27,His34]-h-amylin] | 5850 pM
3 | K([γGlu-C20 diacid])CNTATCATQRLADFLRHSSPNFGAIPSSTNVGPRTY-NH2 (disulfide 2-7 (inferred), Synthetic) | 3640 pM
4 | K([γGlu-C14 diacid])CNTATCATQRLANFLRHSSPNFGAIPSSTNVGHNTY-NH2 (disulfide 2-7 (inferred), Synthetic) [N^ε1-[(4S)-4-carboxy-4-(13-carboxytridecanoylamino)butanoyl]-[Arg17,Pro21,Pro27,His34]-h-amylin] | 1090 pM
5 | K([γGlu-C20 diacid])CNTATCATQRLAEFLRHSSPNFGAIPSSTNVGRETY-NH2 (disulfide 2-7 (inferred), Synthetic) | 2740 pM
6 | K([γGlu-C16 diacid])CNTATCATQRLANFLRHSSPNFGAIPSSTNVGHNTY-NH2 (disulfide 2-7 (inferred), Synthetic) [N^ε1-[(4S)-4-carboxy-4-(15-carboxypentadecanoylamino)butanoyl]-[Arg17,Pro21,Pro27,His34]-h-amylin] | 2210 pM

biological target: T2, human amylin 3(a) receptor (human …); assay: cell-based or functional assay

Row | Binder | hAmylin-R funct. EC50 (pM)
7 | {C20 diacid-γGlu}-GRCNTATCATQRLAAFLRHSSPNFGAIPSSTNVGPNTY-NH2 (disulfide 3-8) | 70 pM
8 | B1 | 109 pM
9 | B2 | 62 pM
10 | B3 | 146 pM
11 | B4 | 80 pM
12 | B5 | 213 pM

biological target: T3, human calcitonin receptor; assay: cell-based or functional assay

Row | Binder | Ratio hCT/hAmylin funct.
13 | {C20 diacid-γGlu}-GRCNTATCATQRLAAFLRHSSPNFGAIPSSTNVGPNTY-NH2 (disulfide 3-8) | 2.1
14 | B1 | 4.9
15 | B2 | 2.9
16 | B3 | 1.6
17 | B4 | 3.6
18 | B5 | 2.2
